According to US10894091B2, “Linker units and molecular constructs comprising the same” (priority 2017, dated 2021):
maleimide‑FITC = FITC conjugated through maleimide to the Cys of the Cys-containing CCK8 peptide

T1: human CCK8-type B receptor molecules on Panc-1 tumor cell line (Homo sapiens, UniProt P32239)
T1 construct: human CCK8-type B receptor molecules on Panc-1 tumor cell line; endogenous in cells; host or cells: Panc-1 pancreatic carcinoma cell line
T1 sequence (P32239 1-447): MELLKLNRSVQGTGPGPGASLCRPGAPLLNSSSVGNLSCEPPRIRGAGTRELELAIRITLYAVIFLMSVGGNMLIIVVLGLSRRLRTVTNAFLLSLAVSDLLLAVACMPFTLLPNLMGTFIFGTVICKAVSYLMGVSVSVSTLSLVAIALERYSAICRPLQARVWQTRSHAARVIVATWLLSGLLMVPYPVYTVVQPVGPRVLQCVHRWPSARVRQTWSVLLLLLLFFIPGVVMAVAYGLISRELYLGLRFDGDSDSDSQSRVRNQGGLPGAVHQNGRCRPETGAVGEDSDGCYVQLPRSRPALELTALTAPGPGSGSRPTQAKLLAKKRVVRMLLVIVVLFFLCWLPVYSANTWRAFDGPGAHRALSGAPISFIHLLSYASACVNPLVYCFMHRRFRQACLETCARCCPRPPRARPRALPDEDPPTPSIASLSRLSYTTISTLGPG


Experiments:
[1] = target: T1, human CCK8-type B receptor molecules on Panc-1 tumor cell line; assay: Staining analysis (FACS) of binding of CCK8 peptide to CCK-type B receptor-expressing tumor cell line; type: cell-based; details: 150 μg/ml CCK8-FITC reaction mixture, on ice 30 minutes, FIG. 24
Description: The CCK8 peptide molecule was analyzed for its ability to bind to human CCK8-type B receptor molecules on Panc-1 tumor cell line. Panc-1 was established from a pancreatic carcinoma, which was extracted via pancreatico-duodenectomy specimen from an individual. Malignancy of this cell line was verified via in vitro and in vivo assays. Prior to staining, the Cys-containing CCK8 peptide was conjugated with maleimide-FITC to produce a FITC-labeled CCK8 peptide as a detective CCK8 molecule with FITC. The assay was then performed by incubating 2×10^6 Panc-1 cells with 150 μg/ml of the reaction mixture of CCK8-FITC molecule in PBS, with 1 FBS and 1% sodium azide on ice for 30 minutes in the dark. The staining of maleimide-FITC alone was used a negative control. The staining of cells was analyzed by FACS (FACSCanto II; BD Biosciences). The x-axis of histogram is the fluorescence intensity. In FIG. 24, the dark area represents the background of fluorescence distribution of Panc-1 cells, the dashed line is the fluorescence distribution of Panc-1 cells stained maleimide-FITC and the dark line is the fluorescence distribution of Panc-1 cells stained CCK8-FITC.

[2] = target: T2, human CD3 on Jurkat T cell line (Homo sapiens, UniProt P07766); assay: Staining analysis (FACS) of binding of anti-CD3 scFv to T cells; type: cell-based
T2 construct: human T lymphocyte cell which express the T cell receptor (TcR)/CD3 complexes on the cell surface; endogenous in cells; host or cells: Jurkat T cell line
T2 sequence (P07766 23-207): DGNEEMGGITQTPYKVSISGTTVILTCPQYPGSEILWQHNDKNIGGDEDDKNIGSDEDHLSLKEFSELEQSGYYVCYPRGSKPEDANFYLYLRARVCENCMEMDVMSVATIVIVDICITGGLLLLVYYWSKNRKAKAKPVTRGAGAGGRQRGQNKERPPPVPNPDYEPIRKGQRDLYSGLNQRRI
T2 sequence (P09693 23-182 partner): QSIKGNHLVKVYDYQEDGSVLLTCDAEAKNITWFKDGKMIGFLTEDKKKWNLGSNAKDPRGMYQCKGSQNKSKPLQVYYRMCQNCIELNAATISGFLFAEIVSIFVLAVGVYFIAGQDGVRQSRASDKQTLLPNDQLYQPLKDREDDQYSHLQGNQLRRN
T2 sequence (P04234 22-171 partner): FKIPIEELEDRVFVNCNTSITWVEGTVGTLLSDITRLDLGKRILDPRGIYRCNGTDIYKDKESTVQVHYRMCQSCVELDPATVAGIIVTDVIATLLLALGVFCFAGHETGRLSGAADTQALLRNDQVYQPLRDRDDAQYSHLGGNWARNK
T2 sequence (P20963 22-164 partner): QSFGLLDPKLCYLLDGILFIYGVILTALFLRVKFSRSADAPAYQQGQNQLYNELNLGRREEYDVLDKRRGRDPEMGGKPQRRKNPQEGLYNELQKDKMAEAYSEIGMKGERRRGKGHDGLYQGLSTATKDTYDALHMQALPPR
T2 sequence (P01848 whole entry partner): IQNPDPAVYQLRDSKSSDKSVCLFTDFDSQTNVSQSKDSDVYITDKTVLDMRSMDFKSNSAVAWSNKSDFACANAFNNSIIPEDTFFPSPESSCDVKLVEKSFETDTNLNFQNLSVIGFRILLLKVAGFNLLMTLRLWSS
T2 sequence (P01850 whole entry partner): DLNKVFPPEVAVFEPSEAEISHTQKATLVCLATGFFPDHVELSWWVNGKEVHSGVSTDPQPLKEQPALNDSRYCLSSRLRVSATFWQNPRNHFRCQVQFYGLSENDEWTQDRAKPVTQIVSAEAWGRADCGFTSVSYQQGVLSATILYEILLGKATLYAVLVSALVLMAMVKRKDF
Description: The ability of the mutated teplizumab to bind to human T lymphocytes, which express CD3 was studied with Jurkat T cell line. The mutated teplizumab was analyzed for their ability to bind to human CD3 molecules on Jurkat T cell line. Jurkat cells are immortalized line of human T lymphocyte cell which express the T cell receptor (TcR)/CD3 complexes on the cell surface.
The assay was performed by incubating 2×10^6 Jurkat T cells with 0.1 and 1 μg/ml of the scFv in PBS with 1 FBS and 0.1% sodium azide on ice for 30 minutes. Cells were washed and incubated with FITC-conjugated Protein L (ACROBiosystems Inc., Newark, USA), diluted 1:200 in PBS/FBS, at 4° C. for 30 minutes in the dark. Protein L-FITC and FITC-conjugated rabbit anti-mouse IgG.Fc (AbD Serotec) were used as secondary antibodies. The staining of secondary antibodies alone were as negative controls. OKT3, a mouse monoclonal antibody specific for human CD3, was used as the positive control. The staining of cells was analyzed by FACS (FACSCanto II; BD Biosciences). The x-axis of histogram is the fluorescence intensity.
The purity of DBCO-conjugated scFvs specific for CD3 was identified through Coomassie staining of 12% SDS-PAGE (data not shown).

[3] = flow cytometric analysis, FIG. 23C

| Molecule | binding to Panc-1 cells [1] | binding to T cells ([2]; Jurkat T cells, 0.1 and 1 μg/ml scFv, on ice 30 minutes, FITC-conjugated Protein L, FACS, FIG. 23B) | binding to T cells [2, 3] |
| --- | --- | --- | --- |
| FITC-labeled CCK8 peptide (Ac-C(maleimide‑FITC)GGGGSDYMGWMDF-NH2; ends and bridges not checked) | bound to Panc-1 cells |  |  |
| mutated teplizumab: scFv of teplizumab with CDR3 VH cysteine substituted by serine, SEQ ID NO: 21 (protein) scFv: QVQLVQSGGGVVQPGRSLRLSCKASGYTFTRYTMHWVRQAPGKGLEWIGYINPSRGYTNYNQKVKDRFTISRDNSKNTAFLQMDSLRPEDTGVYFCARYYDDHYSLDYWGQGTPVTVSSGSTSGSGKPGSGEGSTKGDIQMTQSPSSLSASVGDRVTITCSASSSVSYMNWYQQTPGKAPKRWIYDTSKLASGVPSRFSGSGSGTDYTFTISSLQPEDIATYYCQQWSSNPFTFGQGTKLQITRGGGGSGGGGSC |  | bound to T cells | bound to T cells |
| DBCO-conjugated scFv specific for CD3: mutated teplizumab scFv conjugated at C-terminal cysteine with Mal-PEG5-DBCO (conjugate) scFv: QVQLVQSGGGVVQPGRSLRLSCKASGYTFTRYTMHWVRQAPGKGLEWIGYINPSRGYTNYNQKVKDRFTISRDNSKNTAFLQMDSLRPEDTGVYFCARYYDDHYSLDYWGQGTPVTVSSGSTSGSGKPGSGEGSTKGDIQMTQSPSSLSASVGDRVTITCSASSSVSYMNWYQQTPGKAPKRWIYDTSKLASGVPSRFSGSGSGTDYTFTISSLQPEDIATYYCQQWSSNPFTFGQGTKLQITRGGGGSGGGGSC |  |  | bound to T cells |
